Data set [1] has as its target T1, C/EBPβ (Homo sapiens, UniProt P17676 1-345). The data set is described as follows: EMSA, competition, supershift; LightShift Chemiluminescent EMSA kit; 6% native polyacrylamide gel, 0.5x TBE, 100 V, 60 min; binding buffer, salt, pH and temperature not stated. Conditions: protein: recombinant; chain copies: 2; label: biotin (5' of both strands); blunt. On the technique in general: In EMSA bound probe runs differently from free probe, usually more slowly.

Data set [2] deals with T1, C/EBPβ. The data set is described as follows: competition; 100-fold molar excess vs biotin CXCL5 WT probe; LightShift Chemiluminescent EMSA kit; 6% native polyacrylamide gel, 0.5x TBE, 100 V, 60 min; binding buffer, salt, pH and temperature not stated. Conditions: protein: recombinant; chain copies: 2; label: unlabeled; blunt.
Data set [3] deals with T1, C/EBPβ. In words: competition; 100-fold molar excess vs biotin CXCL1 WT probe; LightShift Chemiluminescent EMSA kit; 6% native polyacrylamide gel, 0.5x TBE, 100 V, 60 min; binding buffer, salt, pH and temperature not stated. As to conditions: protein: recombinant; chain copies: 2; label: unlabeled; blunt.
The target of data set [4] is T1, C/EBPβ. The data set is described as follows: competition; 100-fold molar excess vs biotin CXCL2 WT probe; LightShift Chemiluminescent EMSA kit; 6% native polyacrylamide gel, 0.5x TBE, 100 V, 60 min; binding buffer, salt, pH and temperature not stated. As to conditions: protein: recombinant; chain copies: 2; label: unlabeled; blunt.

T1 sequence (P17676 whole entry): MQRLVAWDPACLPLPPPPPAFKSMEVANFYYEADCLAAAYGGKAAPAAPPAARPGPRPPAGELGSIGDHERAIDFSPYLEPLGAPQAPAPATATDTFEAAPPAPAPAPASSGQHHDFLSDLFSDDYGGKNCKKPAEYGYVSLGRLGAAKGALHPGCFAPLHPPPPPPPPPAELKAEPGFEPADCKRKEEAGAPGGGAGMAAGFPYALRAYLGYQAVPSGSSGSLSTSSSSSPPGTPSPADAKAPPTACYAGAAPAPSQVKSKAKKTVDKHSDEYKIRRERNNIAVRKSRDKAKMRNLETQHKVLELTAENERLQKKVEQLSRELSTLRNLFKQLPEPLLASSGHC

B1: CXCL2 WT probe (dsDNA)
DNA 1: TAGAAGTGGTGTTTCACAACCTTACTGATA
DNA 2: TATCAGTAAGGTTGTGAAACACCACTTCTA
Consider B1, for which the binding result with C/EBPβ [1] is “binds”.

B2: CXCL5 MUT probe (dsDNA)
DNA 1: CACTGTCAATTTTTATGGCAG
DNA 2: CTGCCATAAAAATTGACAGTG
With B2, in the data set with C/EBPβ [2], the binding result is “no binding”.

B3: CXCL1 WT probe (dsDNA)
DNA 1: TGGAACTTTCAAAATCCCCT
DNA 2: AGGGGATTTTGAAAGTTCCA
On to B3, for which the binding result with C/EBPβ [1] is given as “binds”.

B4: CXCL1 MUT probe (dsDNA)
DNA 1: TGGAAACGGTCCCCACCCCT
DNA 2: AGGGGTGGGGACCGTTTCCA
As for B4, in the data set with C/EBPβ [3], the binding result is recorded as “no binding”.

B5: CXCL5 WT probe (dsDNA)
DNA 1: CACTGTCTTGCTCCATGGCAG
DNA 2: CTGCCATGGAGCAAGACAGTG
As for B5, the binding result in the data set with C/EBPβ [1] is listed as “binds”.

B6: CXCL2 MUT probe (dsDNA)
DNA 1: TAGAAGTGGTAGGGTCTCCTCTTACTGATA
DNA 2: TATCAGTAAGAGGAGACCCTACCACTTCTA
Regarding B6, the binding result with C/EBPβ [4] is recorded as “no binding”.

Source of the values: paper PMC13107026, “Intestinal epithelial C/EBPβ deficiency impairs colitis-associated tumorigenesis by disrupting CXCL1/CXCL2/CXCL5-CXCR2-mediated neutrophil infiltration”.
